US7595158B2, “Bcl2L12 polypeptide activators and inhibitors” (Dana-Farber Cancer Institute, Inc., priority 2003, dated 2009)

Experiments:
Type in all cases: cell-based
[1] = system: Ink4a/Arf deficient embryonic fibroblasts; assay: Colony formation of Ink4a/Arf deficient embryonic fibroblasts; conditions: about 300 cells per 6 well plate; vector only about 13
Experimental: In addition, Ink4a/Arf deficient embryonic fibroblasts were transfected with vector only or a vector encoding a Bcl2L12 polypeptide or Bcl2 polypeptide. Once the cells were transfected, the number of colonies formed in cultures (about 300 cells per 6 well plate) was determined. Expression of Bcl2L12 polypeptide promoted growth of Ink4a/Arf deficient embryonic fibroblasts. […] In a similar experiment, Ink4a/Arf deficient embryonic fibroblasts were co-transfected with a vector encoding H-RasV12 and either a vector only, vector encoding Bcl2L12 polypeptide, or a vector encoding Bcl2 polypeptide. Once the cells were transfected, the number of foci formed per transfection was determined. Expression of Bcl2L12 polypeptide or Bcl2 polypeptide in combination with H-RasV12 expression promoted growth of Ink4a/Arf deficient embryonic fibroblasts (about 1.5 to 2 fold more foci per transfection for cells expressing Bcl2L12 polypeptide or Bcl2 polypeptide compared to control pBabe cells).

astrocytes = assay: Plasma membrane integrity (SYTOX Green) and LEHDase activity in STS-treated astrocytes; conditions: range of STS concentrations
Experimental: To assess and quantify plasma membrane integrity, vector or Bcl2L12-V5 transfected astrocytes were treated with or without STS (500 nM) for 24 hours and stained with a combination of Hoechst (a DNA intercalating dye that enters living as well as apoptotic or necrotic cells) and SYTOX Green (a green fluorescent dye that only enters cells with a disintegrated plasma membrane). FIG. 4B is a picture of STS treated and untreated cells transfected with either a control vector (pBabe) of a vector encoding a Bcl2L12-V5 polypeptide.
In addition, the green cells were counted over a range of different STS concentration (FIG. 4C; bars), and caspase-9 activity was determined by quantifying LEHDase activity in the corresponding cell lysates (FIG. 4C; histogram). […] SYTOX green positive cells were also quantified using a FACS based analysis assessing the increase in green fluorescence.

BJAB and SKW6.4 cells = assay: Apoptosis of lymphoid cells stimulated with anti-CD95 or STS (FACS scatter); conditions: anti-CD95 or STS 24 hours, GFP positive cells
Experimental: In addition, BJAB and SKW6.4 cells were co-transfected (1:3 ratio) with a vector encoding GFP and either an empty vector control or a vector encoding Bcl2L12-V5. After 24 hours, the transfected cells were stimulated with anti-CD95 or STS for 24 hours at different concentrations. The cells were analyzed by FACS. A gate was set only on GFP positive cells. Apoptosis was defined as an increase in sideward scatter and a decrease in forward scatter. SKW6.4 cells are type I B cells, while BJAB cells are type II B cells.

B1: Bcl2L12-V5: Bcl2L12 polypeptide having the V5 epitope tag, ectopically expressed from pBabe-Bcl2L12-V5 vector; human amino acid sequence 1-334 (protein)
chain: MGRPAGLFPPLCPFLGFRPEACWERHMQIERAPSVPPFLRWAGYRPGPVRRRGKVELIKFVRVQWRRPQVEWRRRRWGPGPGASMAGSEELGLREDTLRVLAAFLRRGEAAGSPVPTPPRSPAQEEPTDFLSRLRRCLPCSLGRGAAPSESPRPCSLPIRPCYGLEPGPATPDFYALVAQRLEQLVQEQLKSPPSPELQGPPSTEKEAILRRLVALLEEEAEVINQKLASDPALRSKLVRLSSDSFARLVELFCSRDDSSRPSRACPGPPPPSPEPLARLALAMELSRRVAGLGGTLAGLSVEHVHSFTPWIQAHGGWEGILAVSPVDLNLPLD
modifications: left off: small tags and cut ends
In the case of B1, the number of colonies [1] is reported as “about 26 colonies”, the “SYTOX Green positivity” value (astrocytes) is reported as “significantly increased” and the “caspase-9 activity (LEHDase)” value (astrocytes) is reported as “dramatically reduced”. The apoptosis (BJAB and SKW6.4 cells) was “promoted apoptosis”.
